Results reported in paper PMC11772769, “Selective cargo and membrane recognition by SNX17 regulates its interaction with Retriever” (EMBO Reports, 2024).

Target: T1, Peptide SNX17_(CT-18), Q15036
T1 chain: ASDVHGNFAFEGIGDEDL
Assay: fluorescence anisotropy
Details: chain shown with the change; 5-FAM-labeled SNX17CT-18 peptide; parent: LB

B1: MBP-SNX17 (full-length, wild-type), Q15036 N459A; F462A (protein)
chain: MHFSIPETESRSGDSGGSAYVAYNIHVNGVLHCRVRYSQLLGLHEQLRKEYGANVLPAFPPKKLFSLTPAEVEQRREQLEKYMQAVRQDPLLGSSETFNSFLRRAQQETQQVPTEEVSLEVLLSNGQKVLVNVLTSDQTEDVLEAVAAKLDLPDDLIGYFSLFLVREKEDGAFSFVRKLQEFELPYVSVTSLRSQEYKIVLRKSYWDSAYDDDVMENRVGLNLLYAQTVSDIERGWILVTKEQHRQLKSLQEKVSKKEFLRLAQTLRHYGYLRFDACVADFPEKDCPVVVSAGNSELSLQLRLPGQQLREGSFRVTRMRCWRVTSSVPLPSGSTSSPGRGRGEVRLELAFEYLMSKDRLQWVTITSPQAIMMSICLQSMVDELMVKKSGGSIRKMLRRRVGGTLRRSDSQQAVKSPPLLESPDATRESMVKLSSKLSAVSLRGIGSPSTDASASDVHGAFAAEGIGDEDL
Work on B1 yielded a Kd of 86 µM.
